The values that follow come from IntAct's records for PubMed 22752157.

B1: Kinase suppressor of Ras 1 (Mus musculus), Q61097 (parent)
chain: MDRAALRAAAMGEKKEGGGGGAAADGGAGAAVSRALQQCGQLQKLIDISIGSLRGLRTKCSVSNDLTQQEIRTLEAKLVKYICKQQQSKLSVTPSDRTAELNSYPRFSDWLYIFNVRPEVVQEIPQELTLDALLEMDEAKAKEMLRRWGASTEECSRLQQALTCLRKVTGLGGEHKMDSGWSSTDARDSSLGPPMDMLSSLGRAGASTQGPRSISVSALPASDSPVPGLSEGLSDSCIPLHTSGRLTPRALHSFITPPTTPQLRRHAKLKPPRTPPPPSRKVFQLLPSFPTLTRSKSHESQLGNRIDDVTPMKFELPHGSPQLVRRDIGLSVTHRFSTKSWLSQVCNVCQKSMIFGVKCKHCRLKCHNKCTKEAPACRITFLPLARLRRTESVPSDINNPVDRAAEPHFGTLPKALTKKEHPPAMNLDSSSNPSSTTSSTPSSPAPFLTSSNPSSATTPPNPSPGQRDSRFSFPDISACSQAAPLSSTADSTRLDDQPKTDVLGVHEAEAEEPEAGKSEAEDDEEDEVDDLPSSRRPWRGPISRKASQTSVYLQEWDIPFEQVELGEPIGQGRWGRVHRGRWHGEVAIRLLEMDGHNQDHLKLFKKEVMNYRQTRHENVVLFMGACMNPPHLAIITSFCKGRTLHSFVRDPKTSLDINKTRQIAQEIIKGMGYLHAKGIVHKDLKSKNVFYDNGKVVITDFGLFGISGVVREERRENQLKLSHDWLCYLAPEIVREMIPGRDEDQLPFSKAADVYAFGTVWYELQARDWPFKHQPAEALIWQIGSGEGVRRVLASVSLGKEVGEILSACWAFDLQERPSFSLLMDMLERLPKLNRRLSHPGHFWKSADINSSKVMPRFERFGLGTLESGNPKM

The variants in the experiment derive from B1. Particulars: with VRK2, Q86Y07-1.
Chain of VRK2, Q86Y07-1 (Q86Y07 whole entry): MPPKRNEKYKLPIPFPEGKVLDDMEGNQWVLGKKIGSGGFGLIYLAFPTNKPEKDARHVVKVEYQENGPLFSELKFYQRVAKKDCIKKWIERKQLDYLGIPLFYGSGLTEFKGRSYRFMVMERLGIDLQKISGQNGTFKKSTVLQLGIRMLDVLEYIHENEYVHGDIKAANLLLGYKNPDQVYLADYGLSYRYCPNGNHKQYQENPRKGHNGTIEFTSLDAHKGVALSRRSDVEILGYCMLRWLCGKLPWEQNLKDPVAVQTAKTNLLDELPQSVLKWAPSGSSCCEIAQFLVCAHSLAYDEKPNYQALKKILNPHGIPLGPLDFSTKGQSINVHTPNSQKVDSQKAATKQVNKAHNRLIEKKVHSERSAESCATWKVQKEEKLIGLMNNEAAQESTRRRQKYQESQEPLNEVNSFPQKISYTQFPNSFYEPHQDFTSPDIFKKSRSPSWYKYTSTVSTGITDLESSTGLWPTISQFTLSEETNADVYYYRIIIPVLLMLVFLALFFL
As to C809Y, the “effect of a mutation on the interaction” value was “decreasing interaction”.
